Assay results taken from paper PMC6668372, “Trypanosoma brucei centrin5 is enriched in the flagellum and interacts with other centrins in a calcium‐dependent manner” (FEBS Open Bio, 2019).

T1: TbCentrin3, purified for ITC (Trypanosoma brucei, UniProt Q38AA2 1-165)
T1 chain: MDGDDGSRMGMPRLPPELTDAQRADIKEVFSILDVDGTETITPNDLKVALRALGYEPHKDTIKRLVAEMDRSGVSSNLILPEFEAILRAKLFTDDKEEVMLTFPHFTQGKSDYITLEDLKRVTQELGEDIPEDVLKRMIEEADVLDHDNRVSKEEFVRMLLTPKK

T2: TbCentrin4, purified for ITC (Trypanosoma brucei, UniProt Q57WF6 1-149)
T2 chain: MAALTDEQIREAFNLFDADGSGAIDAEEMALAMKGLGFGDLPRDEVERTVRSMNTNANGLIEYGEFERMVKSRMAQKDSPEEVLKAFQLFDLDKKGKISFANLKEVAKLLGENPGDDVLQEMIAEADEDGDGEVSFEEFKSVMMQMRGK

B1: Trypanosoma brucei centrin5 (TbCentrin5), purified, His-tag removed (natural protein, UniProt Q382E7 1-186, looked up)
chain: MEGPKLKGAARCAAVEKVESKTQLSIAISEKHKAQLREAFDFFDSDGTGRINAQDVKVAFCALGYEVGKEELTHLLRQVGASTTGVIDFNDFYSVIIAKIMQRENRSEAIRAFKLIDTGEKGYINVDDLRPIAASLQMNLTDDELAEMVLFAHPSATYSKADTEMKDPLTVSEEEFLKLMNRAHVY
notes: TbCentrin5 of Trypanosoma brucei, Tb927.11.13900, full-length gene amplified from genomic DNA; 186 amino acids, about 20 kDa calculated; also called centrin5 of T. brucei; Tb927.11.13900; source: E. coli BL21 (DE3), purified (TEV digestion, gel filtration Sephadex G-75); not shown: His-tag, N-terminal, cleaved
B2: TbCentrin3, purified for ITC (natural protein, Trypanosoma brucei, UniProt Q38AA2 1-165, looked up)
chain: T1 chain
notes: TbCentrin3 of Trypanosoma brucei, Tb927.10.8710; Cloning, tag and host of this protein are not described; also called Tb927.10.8710; source: purified and equilibrated as above (gel filtration Sephadex G-75)
B3: TbCentrin1, purified for ITC (natural protein, Trypanosoma brucei, UniProt Q584G1 1-182, looked up)
chain: MSSSRPATGNRLAVPIRTNLPVPAPRKRRFELTDEQRQEIREAFELFDSDKNGLIDAHEMKVSMRALGFDAKKEEVLRMMQDCAARDQHNNPLMDLAGFTDLMTERFAQRDPRQEMIKAFQLFDENNTGKISLRSLRRVARELGENMTDEELQAMIDEFDTDQDGEINLDEFLAIMLEDDDY
notes: TbCentrin1 of Trypanosoma brucei, Tb927.04.2260; Cloning, tag and host of this protein are not described; also called Tb927.04.2260; source: purified and equilibrated as above (gel filtration Sephadex G-75)
B4: TbCentrin4, purified for ITC (natural protein, Trypanosoma brucei, UniProt Q57WF6 1-149, looked up)
chain: T2 chain
notes: TbCentrin4 of Trypanosoma brucei, Tb927.07.3410; Cloning, tag and host of this protein are not described; also called TbCentirn4; Tb927.07.3410; source: purified and equilibrated as above (gel filtration Sephadex G-75)

Experiments:
[1] = target: the molecule itself; assay: SEC; gel filtration on Superdex G-75 column, elution at about 66 mL corresponding to about 36 kDa; SDS/PAGE showed no disulfide bond
[2] = target: T1, TbCentrin3, purified for ITC; assay: ITC
[3] = target: T2, TbCentrin4, purified for ITC; assay: ITC
[4] = target: B1; assay: ITC; iTC200, 16 °C, 20 mM Tris/HCl pH 7.0, 100 mM NaCl; 50 uM TbCentrin1/2/3/4 in the cell, 0.5 mM TbCentrin5 in the syringe; without EGTA treatment; settings: both partners purified

Binder	stoichiometry N [1]	Kd [2]	Kd [3]	Kd [4]
B1	2	56 µM	16 µM	
B2				52 µM
B3				105 µM
B4				12 µM
